The source of these data is PMC3637437.

Values joined by “and” are separate entries in the source; they are usually repeats but may differ in a detail not shown here. Equal values may be shown once.

A word on the stoichiometry N: it is the number of molecules, sites or subunits per partner or assembly.

What all share (experiment): native gel or EMSA; 1 ug of each purified consensus Env gp140 on a NativePAGE native gel, silver stained
In general terms: Mobility shift assays separate free from complexed probe on a gel.

Assay [1] has as its target Con M Env gp140 trimer (HIV-1 group M consensus) (bacteriophage).
The target of assay [2] is Consensus E Env gp140 trimer (bacteriophage).
In assay [3] the target is Consensus C Env gp140 trimer (bacteriophage).
Assay [4] addresses Consensus A Env gp140 trimer (bacteriophage).
For assay [5], the target named is Consensus B Env gp140 trimer (bacteriophage).

In the case of “Con M Env gp140 trimer (HIV-1 group M consensus)”, the stoichiometry N in assay [1] is 3 and 2. As to Consensus E Env gp140 trimer, the stoichiometry N in assay [2] was 3 and 2. Consensus C Env gp140 trimer: the stoichiometry N in assay [3] is 3 and 2. In assay [4], Consensus A Env gp140 trimer gave a stoichiometry N of 3. For Consensus B Env gp140 trimer, in assay [5], the stoichiometry N was found to be 3.
